Results taken from the nanobody polyreactivity screen of Harvey et al. (2022).

Assay: yeast display, Sf9 membrane polyspecificity reagent, FACS + sequencing; frameworks hold sequencing errors
How it was run: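 Sorting gates, low and high (top ~1%), were placed on anti-HA fluorescence to track expression and on streptavidin fluorescence to track reagent binding. A clone's polyreactivity label is taken from the gate it came out of. The reagent was 10% biotinylated, detergent-solubilized Sf9 membrane, applied for 1 hour at 4 °C to galactose-induced yeast display cells.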

Sequence | polyreactivity (PSR sort gate)
QVQLVESGGGLVQAGGSLRLSCATSGFIFSLYAMGWYRQAPGKERELVAAINWNGGRTYYADSVKGRFTISRDNAKNTVYLQMDSLKPEDTAVYYCATRSGSYSYPAVGGWGLGYWGQGTQVTVSS | high polyreactivity
QVQLVESGGGLVQAGGSLRLSCDASGRTFYFYVMGWYRQAPGKERELVARISWSGGSTYYADSVKGRFTISRDNAKNTVYLQMNSLKPEDTAVYYCARQYKYPSSGEYDSWGQGTQVTVSS | low polyreactivity
QVQLVESGGGVVQAGGSLRLTCAASGIIFYRYSMGWYSQAPGKERELVAAISIGGGSTYYADSVKVRFTISRYNAKNTVYLEMNSLKPEDTAVYYCAADTYNYVGYNGHDYWGQGTQVTVSS | low polyreactivity
QVQLVESGGGLVQAGGSLRLSCAASGFTFGSYAMGWYRQAPGKERELVAVITRSGRTNYADSVKGRFTISRDTAKNTVYLQMNSLKPEDTAVYYCNADDVDDEVSPELTEMDYWGQGTQVTVSS | low polyreactivity
QVQLVESGGGLVQAGGSLRLSCAASGSTLYYNAMGWYRQAPGKESELVAAISWSGGSTYYADSVKGRFTISRDNAKNTVYLQMNSLKPEDTAVYYCAADQSTVLDVGSWGQGTQVTVSS | low polyreactivity
QVQLVESGGGLVQAGGSLRLTCAASGSIFTGYTMGWYRQAPGKERELVASISRRGGRTYYADSVKGRFTISRDNAKNTVYLQMNSLKPEDTAVYYCAVDRVPWRYQDSYNYWGQGTQVTVSS | high polyreactivity
QVQLVESGGGLVQAGGSLRLSCAASGFTFAYAMGWYRQAPGKERELVAAISFSGGSTYYADSVKGRFTISRDNAKNTVYLQMNSLKPEDTAVYYCNKRGGKRSTMDYWGHGTQVTVSS | low polyreactivity
QVQLVESGGGLVQAGGSLRLSCAASGRIFDRYGMGWYRQAPGKERELLAAITSRGGSTYYADSVKGRFTISRDNAKNTVYLQMNSLKPEDTAVYYCAAYGRYGFGRVERYDYWGQGTQVTVSS | high polyreactivity
QVQLVESGGGLVQAGGSLRLSCASSGLTFYPYAMGWYRQAPGKERELVAAISKSGGRTSYADSVKGRFTISRDNAKNTVYLQMNSLKPEDTAVYYCNARSGTFGYSTYGYWGQGTQETVSS | high polyreactivity
QVQLVESGGGLVQAGGSLRLSCAATGRIFTRNAMGWYRQAPGKERELVAAISYSGGTTYYADSVKGRFTISRDNAKITVYLQMNSLKPDDTAVYDCAALRPTQRYFTYDYWGHGTQVTVSS | high polyreactivity
QDQLVESGGGLVQAGGSLRISCAASGSTFPLYAMGWYRQAPGKEMEFVAAIRWIGGSTYYADSVKGRFTISRDNAMNTVYLQMNSLKPEDTAVYYCAADYVVSAFDYWGQGTQVTVSS | low polyreactivity
QFQLVESGGGLVQAGGSLRLSCAASGRIFPLYVMGWYRQAPGKERELVAAMSRSGSRTYYADSVKGRFTISRDNAKNTVYFQMNSLKPEDTAVYYCAAVPDGTTRYDGDYWGQGTQVTVSS | high polyreactivity
QVQLQERGGGLVQAGGSLRLSCAASGIIYADGFMGLYRQAPGKELEFVANITGGGTSNYADSVKGGFTISRDNAKNTVYLQMNSLKPEDTAVYFCAVYFAWTIGFTYWGQGTQVTVSS | high polyreactivity
QVQLVESGGGLVQAGGSLRLTCAASGYIQPKNTMGWYRQAPGKERELVAAISWSGGSTFYADSVKGRFTISRDNAKNTVYLKMNSLKPVDTAVYYCAADRSWSWYYRYDYWGQGTQVTLSS | low polyreactivity
QVQLVESGGGLVQAGGSLRLSCAASGSTFVFNAMGWYRQAPGKERELVAAISIDGSTNYADSVKGRFTISRDNANNSVYLQMNSLKPEDTAVYYCNAKRYGFFYWQGDYWGQGTQVTVSS | low polyreactivity
QVQLVESGGGLVQAGGSLRLSCAASGRIFGVYAMGWYRQAPGKERELVAAIYSGSSTYYADSVKGRFTISRDNAKNTVYLHMNSLKPEDTAVYYCAAVSRDDNYQDYYYWGQGTQVTVSS | low polyreactivity
QVQLVESGGGLVQAGGSLRLSCAASGLIFVNDMGLYRQAPGKEREFVAAITYSTGSTYYADSVKGRFTISRDNAKNTVYLQMNSLKPEDTAVYYCAKDRSGHGTERDYWGQGTQVTVSS | low polyreactivity
QFQLVESGGGLVQAGGSLRLSCAASGSIFLSNAMGWYRQAPGKERELVADIDWTGGDTYYADSVKGRFRISRDNAKNTVYLQMNSLKREDTAVYYCAADYGYRNLRTEYGYWGQGTQVTVSS | low polyreactivity
QVQLVESGGGLVQAGGSLRLSCAASGYTFEYYAMGWYRQAPGKERELVAAISWSGGDTYYADSVKGRFTISRDNAKNTVYLQMNSLNPEDTAVYYCAAVRYYRRRTGSYYHYDYWGQGTQVTVSS | low polyreactivity
QVQLVESGGGLVQAGGSLRLSCAASGRTFNRNAMGWYRQAPRKERELVAAISRGGTTSYADSVKGRFTISRDNAKNTVYLQMNSLQPEDTAVYYCAAEPYIQWVYYRGNGRRYGYWGQGTQVTVSS | high polyreactivity
QVQLVESVGALVQAGGSLRLSCAASGSIFGSNAMGGYRQAPGKERELVAAITWSGTSTYYADSVKGRFTISRDNAKNTVYLQMNSLKPEDTAVYYCARGGYVRAARLVIPYYYWGQGTQVTVSS | low polyreactivity
QVQLVESGGGLVQAGGSLRLSCAASGSIFRPNTMGWYRQAPGKERELVAAIRYRGGGTYYADSVKGRFTISRDNAKNTVYLQMNSLKPEDTAVYFCNAPRRNWSYDYWGQGTQVTVSS | high polyreactivity

Sequence | polyreactivity (PSR sort gate)
QVQLVESGGGLVQAGGSLRLSCAASGSILYSYAMGWYRQAPGKERELVARITKRGGRTYYADSVKGRFTISRDNAKNTVYILMNSLKPEDTAVYYCAADFQYSYGEYDYWGQGTQVTVSS | high polyreactivity
HVQLVESGGGLVQAGGSLRLSCAASGRTFGIYAMGWYRHAPGKQRELVAAISKIGTRTYYADSVKGRFTISRDNAKNTVYLQMNSLNPEDTAVYYCAAYPVDAVYQAYRYPYYDEMDYWGQGTQVTVSS | low polyreactivity
QVQLVESGGGLVQAGGSLRLSCAASGLTFNKNAMGWYRQAPGKEREFVAAISRRGGSTRYADSVKGRFTISRDNAKNTVYLQMHSLKPEDTAVYYCAKTAVDYYYSYDYWGQGTQVTVSS | high polyreactivity
QVQLVESGGGLVQAGGSLRLTCAASGSTYTGYAMGWYRQAPGKERELVAAISISGGRTFYADSVKGRFTISRDNAKNTVYLQMNSLKPEDTAVYYCAAYLRGSKYSFDYWGQGTQVTVSS | high polyreactivity
QVQLVESGGGLVQSGGSLRLSCAASGIKFYYNARGWYRPAPGKERELVARITWRAGSTYYADSVKGRFTISRDNAKNTVYLQMNSLKPEDTAVYYCNADHDGLGYYFWGQGTQVTVSS | high polyreactivity
QVQLVESGGGLVQAGGSLRLSCAAMGWYRQAPGKERELVATLTWSGGSTYYADSVKGRFTISRDNAKNPVYLQMNRLKPEDTAVYYCNARATLLSPANTIRGYDYWGQGTQVTVSS | low polyreactivity
QVQLQERGDGLLQAVGSLRLSFAESGYISGYYYMGWYRQAPGKDRELVAGIDAFGSSTNYADCVKGRFTISRDNAKNTVYLEMNSLKPEDTAVYYCAASPDGERLFSYWGQGTQVTVSS | low polyreactivity
QVQLVESGGGLVQAGGSLRLSCAASGRIFSVNAMGWYRQAPGKERELVAAITPGASTNYADSVKGRFTISRDNAKNTVYLQMNSLKPEDTAVYYCAAGWVSFEDWVLGSYYEFDYWGQGTQVTVSS | low polyreactivity
QVQLVESGGGLVQAGGSLPLSCAASGFIFGTNTMGWYRQAPGKEREMVAAITSVGSTNYADSVKGRFTISRDNAKNTVYLQMNSLKPEDTAVYYCPATLYYQYGGDYWGQGTQVTVSS | low polyreactivity
QVQLVESGGGLVQAGGSLRLTCAASGYIFGVYAMGWYRQAPGKERELVATISSGGSTNYADSVKGRFTISRDNAKNTVYLQMNSLKPEDTAVYYCAAERYWTYYSGFVYGGDNYWGQGTQVTVSS | low polyreactivity
QVQLVESGGGLVQAGGSLRLSCAASGSTFAFNAMGWYRQAPGKERELVAGITRSGGRTYFADSVKGRFTISRDYAKNTVYLQMNSLKPEDTAVYYCAARRSGSKSGLFDYWGQGTQVTVSS | low polyreactivity
QVQLVESGGGLVQAGGSLRLSCAASGSTFGEYAMGWSRQAPGKERELVATITSAGSTYYADSVKGRITFSRDNAKYTVYLQMNSLKPEDTAVYYCAVDPISQGHMDYWVQGTQVTVSS | low polyreactivity
QVQLVASAGGLVQAGGSLRFSCAASGRSFKRYTMGWYRQAPGKERELVAAITKRADRTNYADSVKGRFTISRDNAKNTVYLQMNSLKPEDTAVYYCYADGQNDLPSNGYISYKYDYWGQGTQVTVSS | low polyreactivity
QVQLVESGGGLVQAGGSLRLSCAASGSTFYVNAMGWYRQAPGKERELVAYADSVKGRFTISRDNAKNTVYLQMNSLKPEDTAVYYCNADIEYRPGHGRLGDYDYWGQGTQVTVSS | low polyreactivity
QVQLVESGGCLVQAGGSLRLSCAASGIIFTYYAMGWSRQAPGKESELVARISSSGGRTYYADSVKGRVTISRDNGKNTVYLQMNSLNPEDTAVYYCAAAIVSYGRNDYWGQGTQVTVSS | high polyreactivity
QVQLVESGGGLVQAGGSLRLICAASGGIIYYYAMGWYRQAPGKERELVAGITSAGSTYYADSVKGRFTISRDNAKNTVYLQMNSLKPEDTAVYYCKDAWPGYYWYYDDDYWGQGTQVTVSS | low polyreactivity
QVQLVESGGGLVQAGGSLRLSCAASGLTFEYNAMGWYRQAPGKERELVAAITSGVNTYYADSVKGRFTISRDNAKNTVYLQMNSLKPEDTAVYYCAKYRWNWRYVSRGDSWGQGTQVTVSS | high polyreactivity
QVQLVESGGGLVQAGGSLRLSCAASGFTFVYYAMGWYRQAPGKEREFVAAISLSGGSTYYADSVKGRFTISRDNAKNTVYLQMNSLKPEDTAVYYCATDWSLRIERDYGYWGQGTQVTVSS | low polyreactivity
QVQLVESGGGLVQAGGSLRLSCAASGFTIGPNAMGWYRQPPGKERELVAAISQSGGSTYADSVKGRFTISRDNAKNTVYLQMNSLKPEDTAVYYCAAQRARVNRYGGKFGYWGQGTQVTVSS | high polyreactivity
QVQLVESVGVLVQAGGSLRLSCAASGRTFYRNAVGWYRQAPGKERELVAAISRSGTRTYYADSVKGRFTISRDNATNTVYLQMNSLKPEDTAVYYCNALRVDGGDYWGQGTQVTVSS | high polyreactivity
QVQLVESGGGLVQAGGSLRLSCAASGSIFGSNAMGWYRQAPGKERELVAAITNTGRTNYADSVKGRFTISRDNAKNTVYLQMNSLKPEDTAVYYCNTDGYEFTHFAAGSGWRFDYWGLGTQVTVSS | low polyreactivity
